Experimental data: US20190365894A1 (GMAX BIOPHARM, published 2019)
Residue numbers refer to the chain shown, from its start.

T1: human endothelin A receptor (hETAR) (human, UniProt P25101 21-427)
T1 sequence: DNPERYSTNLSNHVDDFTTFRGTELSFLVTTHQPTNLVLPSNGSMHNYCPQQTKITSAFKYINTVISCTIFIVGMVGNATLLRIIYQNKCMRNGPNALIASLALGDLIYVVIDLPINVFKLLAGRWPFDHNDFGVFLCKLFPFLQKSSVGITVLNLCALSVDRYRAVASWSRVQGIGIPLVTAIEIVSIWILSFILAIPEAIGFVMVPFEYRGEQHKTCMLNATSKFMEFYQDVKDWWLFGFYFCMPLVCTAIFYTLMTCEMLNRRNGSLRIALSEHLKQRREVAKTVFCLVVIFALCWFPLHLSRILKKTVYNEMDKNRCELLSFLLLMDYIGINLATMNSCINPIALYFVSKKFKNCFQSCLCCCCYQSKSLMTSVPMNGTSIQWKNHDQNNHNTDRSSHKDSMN

B1: anti-ETAR antibody A-1 (antibody, V domains shown)
VH: QVTLKESGPGILQPSQTLSLTCSFSGFSLTTSGLGVAWIRQPSGKGLEWLAHIWSDGDTRYYPALKNRLTISKDSSSNQVFLKIARVDTADTATYYCARMKDDSLYFDNWGQGTIFTVSS
VL: DILLTQSPAILSVSPGKRVSFSCRASQNIGTSIHWYQQRTNGSPRLLIKYASKSISGISSRFSGSGSGTDFTLSINSVESEDIAAYYCQHSYSWPWTFGGGTKLEIKR
B2: anti-ETAR antibody A-9 (antibody, V domains shown)
VH: EVQLQQPGGGLVQPGGSLTLSCATSGFTFSSYGMSWVRQTPAKRLELVATISTNGATANYPDSVKGRFTISRDNAKSTLYLQMRSLKSEDTAMYYCATEKGAMGYWGQGTSVTVSS
VL: DVLMTQTPLSLPVSLGDQASISCRSSQNIVHSTGNTYLEWYLQKPGQSPKLLIYKVSNRFSGVPNRFRGSGSGTDFTLKITRVEAEDLGIYYCFQGSHFPFTFGSGTKLEIKR
B3: anti-ETAR antibody A-2 (antibody, V domains shown)
VH: QIQLVQSGAELAKPGASVRMSCETSGYTFTSYWIHWIKERPGQGLEWIGYINPDTDYSEYNQKFKDKARLTADKSSTTAYMELNSLTFDDSAVYYCASAGYYFFDFWGQGTTLTVSS
VL: DIQMTQSPASLSTSVGETVTITCRASENIYSYLAWYQQRQGKSPHLLVNNAKTLAEGVPSRFSGSGSGTHFSLRISGLQPEDFGSYYCQHHYGIPFTFGGGTKLSIKR
notes: also called L2H2
B4: anti-ETAR antibody A-7 (antibody, V domains shown)
VH: EVHLVESGGGLVQPGGSLKLSCAASGFTFSTYGMSWVRQTPDKRLELVATINTNGGTTYYRDSVKGRFTISRDNAKNTLYLQMSSLKSDDTAMYYCARDYGAMDYWGQGTSVTVSS
VL: B2 VL with Q18H, N28Y, N35T, K50Q, N65D, R68T, K79R, T81S, I90V, Y92F
notes: also called L7H7
B5: anti-ETAR antibody A-12 (antibody, V domains shown)
VH: EVKLVESGGRLVQPGNSLRLSCATSGFTFSDYYMSWVRQTPGRALEWLSFIRNRANGYTTEYSASVKGRFTISRDNSQSILYLHMSTLRPEDSATYYCVRDSYHYGYFDVWGAGTTVTVSS
VL: EIQMTQTPSSLSASLGDRVTITCSASQGINNYLNWYQQKPGGKTRLLIYYTSTLQSGVPSRFSGSGSGTHYSLTISNLEPEDIATYYCQQFSKLRTFGGGTRLEIKR
notes: also called L12H12

Experiments:
[1] = biological target: T1, human endothelin A receptor (hETAR); test: cell-based or functional assay
[2] = biological target: T1, human endothelin A receptor (hETAR); test: FACS on CHO-DHFR-ETAR cells against CHO-DHFR- cells
Procedure: PBS containing 10 mM EDTA was used to detach and collect 10⁵ CHO-DHFR-hETAR cells into a 1.5 mL EP tube. The supernatant was removed after centrifugation and the negative control sample was resuspended with a loading buffer (PBS, 2% FBS). For the positive control, 200 μL antibody supernatant was added to resuspension cells and incubation at room temperature; the cells were then centrifuged at 1500 rpm to remove the supernatant, washed with a FACS loading buffer and centrifuged again. The cells were resuspended with addition (200 μL/well) of a FITC labeled goat anti-mouse fluorescent antibody at 1:50 dilution (BD Pharmingen) and incubated at room temperature for 30 min in the dark. Supernatant was removed after centrifugation, cells were washed with FACS loading buffer, centrifuged again and resuspended with the loading buffer for analysis.

Binder	calcium flux assay, inhibition of human ETAR (IC50) [1] [nM]	binding result [2]
B1	37.9	
B2	87.8	
B3		binds
B4		binds
B5		binds
